Tests used:
[1] = system: ZnFng-WUS2 ATF (synthetic construct); test: cell_activity; conditions: endogenous WUS2 mRNA by RT-PCR relative to Act1 in corn protoplasts; range 15-60%; mock nearly zero; binding inferred from activation
[2] = system: ZnFng-WUS1 ATF (synthetic construct); test: cell_activity; conditions: endogenous WUS2 mRNA by RT-PCR relative to Act1 in corn protoplasts; range 8-12%; mock nearly zero; binding inferred from activation
ZnFng-WUS1 ATF (synthetic construct), sequence (chain, as listed by the source): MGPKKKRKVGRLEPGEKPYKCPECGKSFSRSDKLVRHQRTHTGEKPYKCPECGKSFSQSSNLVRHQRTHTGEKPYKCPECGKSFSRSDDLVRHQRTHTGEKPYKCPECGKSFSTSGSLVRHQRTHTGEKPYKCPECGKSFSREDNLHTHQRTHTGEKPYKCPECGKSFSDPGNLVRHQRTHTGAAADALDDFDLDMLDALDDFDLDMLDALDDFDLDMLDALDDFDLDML

ZnFng-WUS2 ATF (synthetic construct), sequence (chain, as listed by the source): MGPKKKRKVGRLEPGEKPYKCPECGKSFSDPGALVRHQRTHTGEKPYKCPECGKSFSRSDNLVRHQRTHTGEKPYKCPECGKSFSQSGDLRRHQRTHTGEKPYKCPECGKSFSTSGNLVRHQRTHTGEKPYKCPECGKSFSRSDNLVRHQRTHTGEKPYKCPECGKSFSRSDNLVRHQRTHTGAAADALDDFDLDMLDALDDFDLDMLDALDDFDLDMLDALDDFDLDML

Sequence	activity [1]	activity [2]
GAGGAGGATGCAGAGGTC (double strand)	50 % of actin	
GACTAGGTTGCGGAAGGG (double strand) [ZnFng-WUS1 binding site in maize WUS2 promoter]		10 % of actin

Reference: US20220195446
